Article PMC9513256
Primed or numbered codes have the meaning given here. Where no end group is shown, it is not given here. PEG2′ = not defined here

Target: Hedgehog acyltransferase (Hhat), triple tagged (HA-FLAG-His) WT (UniProt Q5VTY9)
Chain of UniProt Q5VTY9 (Q5VTY9 whole entry): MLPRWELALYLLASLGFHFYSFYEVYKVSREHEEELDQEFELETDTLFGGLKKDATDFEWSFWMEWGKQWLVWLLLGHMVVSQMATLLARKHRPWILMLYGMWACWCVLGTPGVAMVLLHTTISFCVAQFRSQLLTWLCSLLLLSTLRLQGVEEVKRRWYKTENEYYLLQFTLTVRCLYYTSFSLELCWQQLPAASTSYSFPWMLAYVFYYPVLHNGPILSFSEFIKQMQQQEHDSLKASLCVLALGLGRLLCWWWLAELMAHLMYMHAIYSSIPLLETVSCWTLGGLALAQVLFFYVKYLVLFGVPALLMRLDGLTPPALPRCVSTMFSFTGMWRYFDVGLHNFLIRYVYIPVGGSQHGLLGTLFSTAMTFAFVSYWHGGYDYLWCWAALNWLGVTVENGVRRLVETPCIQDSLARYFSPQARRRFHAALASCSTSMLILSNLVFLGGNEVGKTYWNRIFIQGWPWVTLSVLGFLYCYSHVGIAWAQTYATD

apparent Km for Shh peptide, Hhat-mediated NBD-fatty acylation of Shh peptide (initial rates, 10 min, 37 °C), Shh titrated in the presence of 25 μM NBD-myristoyl-CoA (14:0): 10.7 μM Shh
apparent Km for Shh peptide, Hhat-mediated NBD-fatty acylation of Shh peptide (initial rates, 10 min, 37 °C), Shh titrated in the presence of 25 μM NBD-oleoyl-CoA (18:1): 19.7 μM Shh
apparent Km for Shh peptide, Hhat-mediated NBD-fatty acylation of Shh peptide (initial rates, 10 min, 37 °C), Shh titrated in the presence of 25 μM NBD-palmitoleoyl-CoA (16:1): 5 μM Shh
apparent Km for Shh peptide, Hhat-mediated NBD-fatty acylation of Shh peptide (initial rates, 10 min, 37 °C), Shh titrated in the presence of 25 μM NBD-palmitoyl-CoA (16:0): 10.4 μM Shh
Binder: CGPGRGFGKR-{PEG2′-K(Biotin)-NH2} [biotinylated WT Shh peptide, …-(PEG2)-K(Biotin)-NH2]
